Our source for the Kd, koff and kon values is article PMC9784774.

Test in all cases: SPR; Biacore X100, CM5 chip, RT, 1:1 binding model; methods: antibody (4 μg/mL) captured by anti-human Fc IgG to about 100 RU, pentamer or trimer in five 2-fold dilutions injected at 30 μL/min, 90 s association, 600 s dissociation (the legend of Fig. 5 tells the reverse orientation)
On the technique in general: In SPR one partner is held on a chip, and binding of the other changes the refractive index at the surface.

Test [1] deals with pentamer mutant UL128_K47A (human cytomegalovirus | human cytomegalovirus strain VR1814).
The target of test [2] is pentamer mutant UL128_T94A (human cytomegalovirus | human cytomegalovirus strain VR1814).
In test [3] the target is pentamer mutant UL131A_E23A (human cytomegalovirus | human cytomegalovirus strain VR1814).
The target in test [4] is pentamer mutant UL131A_K27A (human cytomegalovirus | human cytomegalovirus strain VR1814).

B1: MAb 9I6 (antibody, V domains shown)
VH: EVQLVQSGAEVKKPGESLKISCRESGDTFPAYWIAWVRQMPGKGLEWMGIIYPIDSETTYSPSFQGQVTISADKSINTAYLQWSSLKASDSAIYYCARGTSTGLREAFHIWGQGTMVTVSS
VL: DVVMTQSPLSLAVTLGQPAYISCRSSQSLGYSDGNTYLNWFQQRPGQSPRRLIYEVSNRDSGVPDRFSGSGSGTDFTLKISRVEAEDVGTYYCMQGTHWPPMCSFGQGTKLEIK
With B1, the Kd (as a rule, a measure of binding affinity in units of concentration) is 1.5 nM in test [1], 0.57 nM in test [2], 2.83 nM in test [3] and 1.91 nM in test [4]. In addition, the koff – broadly, the rate constant with which the complex falls apart – in test [1] worked out at 7.38e-05 s⁻¹; in test [2], 3e-05 s⁻¹; in test [3], 0.000115 s⁻¹; in test [4] it was 0.000181 s⁻¹. Further, the kon (in general, the rate constant with which the complex forms) in test [1] stood at 49200 M⁻¹ s⁻¹; in test [2] it was 53100 M⁻¹ s⁻¹; in test [3] it was 40700 M⁻¹ s⁻¹; in test [4], 94700 M⁻¹ s⁻¹.
